Data on four molecules can be found in US20180057591A1 (Eli Lilly, published 2018).

Experiment [1] deals with T1, human Tim-3 on cells (Tim-3 DO11.10 cells, a human Tim-3 expressing DO11.10 cell line) (human, UniProt Q8TDQ0 22-301). As to the kind of experiment: cell-based or functional assay.
The target of experiment [2] is T2, human Tim-3-Fc (R&D Systems) (human, UniProt Q8TDQ0 22-130, biotinylated in the phosphatidylserine assay; ruthenylated (sulfo-tag NHS-ester) in the galectin-9 assay).
T2 construct: Bought from R&D Systems; also called hTIM-3-Fc; hTIM-3-Fc Biotin; not shown: Fc part of the bought fusion protein
As to the kind of experiment: ELISA, plate coated with human Tim-3-Fc. On the technique in general: In an ELISA, binding on a coated surface is turned into a signal by an enzyme label.

In experiment [3] the target is T1, human Tim-3 on cells (Tim-3 DO11.10 …). As to the kind of experiment: flow cytometry, A488-labelled antibody on Tim-3 DO11.10 cells.
Experiment [4] concerns the target T2, human Tim-3-Fc (R&D Systems). As to the kind of experiment: MSD blocking assay, ruthenylated hTim-3-Fc binding to plate-bound galectin-9-biotin.
The target of experiment [5] is T3, human Tim-3-IgV-Fc single arm antigen (SAG) (human, UniProt Q8TDQ0 22-130).
T3 construct: Single arm format: the second (Fc only) chain is not described; also called Tim-3 SAG; not shown: Fc part
Put plainly: SPR, Biacore T100, antibody captured by Human Fab Binder, Tim-3 SAG as analyte, 1:1 Langmuir with mass transport. On the technique in general: Surface plasmon resonance follows binding to a sensor surface in real time, without labels.

In experiment [6] the target is T2, human Tim-3-Fc (R&D Systems). As to the kind of experiment: flow cytometry, blocking of biotinylated hTIM-3-Fc binding to phosphatidylserine on camptothecin-treated DO11.10 cells; blocking of hTIM-3-Fc Biotin binding to phosphatidylserine on camptothecin-treated DO11.10 cells.
The next experiment deals with T4, hTim-3-IgV-FLAG (human, UniProt Q8TDQ0 22-130, density indicating glycosylation at Asn99).
T4 construct: Purified from 293HEK supernatant with anti-FLAG resin; also called hTim-3-FLAG; not shown: FLAG tag
Put plainly: SPR, Biacore T200, Fab captured, hTim-3-IgV-FLAG as analyte, HBS-EP, 25 C, 1:1 binding.

B1: Antibody A (antibody, human IgG1, kappa, V domains shown)
VH: EVQLLESGGGLVQPGGSLRLSCAASGFTFSSYYMSWVRQAPGKGLEWVSAISGSGGSTYYADSVKGRFTISRDNSKNTLYLQMNSLRAEDTAVYYCARYARTAFDLWGQGTLVTVSS
VL: DIVMTQSPSSLSASVGDGVTITCQASQDIYNYLNWYQQKPGKAPKLLIYAASSLQSGVPSRFSGSGSGTDFTLTISSLQPEDFATYYCQQANSFPPTFGQGTKLEIKR
notes: also called anti-human Tim-3; Antiboby A
The term EC50 denotes the concentration needed to bring the measured effect to its halfway point. Higher therefore signals a need for much substance. In general, IC50 refers to the concentration needed to halve the response being measured. In general, Kd refers to the free concentration of one partner at which half of the binding sites on the other are occupied at equilibrium, for simple one-to-one binding. Low values mean higher affinity, high ones lower affinity. One may read the koff as the rate constant with which the complex falls apart. A higher koff goes with fast dissociation. The term kon denotes the second-order rate constant of association. Low readings indicate slower complex formation, high ones faster complex formation. With B1, in experiment [1], the “EC50 (nM), IL-2 production of hTim-3 DO11.10 cells with A20 cells and OVA peptide” value (“EC50 (nM), IL-2 production” for short) worked out at 3.71 nM. Also, in experiment [2], the EC50 was found to be 0.0207 nM. In experiment [3], this molecule gave a concentration for a half-maximal effect (EC50) of 0.09 nM. Further, the IC50 in experiment [4] amounted to 5.6 nM. In addition, in experiment [5], the Kd stood at 0.398 nM, the koff is 0.000927 s⁻¹ and the kon was determined as 2.33e+06 M⁻¹ s⁻¹. The IC50 in experiment [6] worked out at 0.32 nM.

B2: Antibody B (antibody, human IgG1, kappa, V domains shown)
VH: EVQLLESGGGLVQPGGSLRLSCAASGFSFSSFYFSWVRQAPGKGLEWVSAISGNGRSTYYADSVKGRFTISRDNSKNTLYLQMNSLRAEDTAVYYCARYYNTGFDLWGQGTLVTVSS
VL: DIVMTQSPSSLSASVGDGVTITCQASEAIYGYLNWYQQKPGKAPKLLIYAASSLPIGVPSRFSGSGSGTDFTLTISSLQPEDFATYYCQQAYGFPPTFGQGTKLEIKR
With B2, the “EC50 (nM), IL-2 production” value in experiment [1] is 6.08 nM. Moreover, in experiment [5], the affinity, expressed as Kd, was 0.158 nM; the koff worked out at 0.000106 s⁻¹; the kon came out at 675000 M⁻¹ s⁻¹.

B3: Antibody A-Fab (Fab, V domains shown)
VH: EVQLLESGGGLVQPGGSLRLSCAASGFTFSSYYMSWVRQAPGKGLEWVSAISGSGGSTYYADSVKGRFTISRDNSKNTLYLQMNSLRAEDTAVYYCARYARTAFDLWGQGTLVTVSS
VL: DIVMTQSPSSLSASVGDGVTITCQASQDIYNYLNWYQQKPGKAPKLLIYAASSLQSGVPSRFSGSGSGTDFTLTISSLQPEDFATYYCQQANSFPPTFGQGTKLEIKR
notes: Made by clipping Antibody A with immobilized papain; also called Fab for Antibody A
In the experiment with hTim-3-IgV-FLAG, B3 yielded a dissociation constant (Kd) of 7.92 nM, a koff of 0.00286 s⁻¹ and a kon of 362000 M⁻¹ s⁻¹.

B4: Antibody C (antibody, human IgG1, kappa, V domains shown)
VH: EVQLLESGGGLVQPGGSLRLSCAASGFTFSSYYMSWVRQAPGKGLEWVSAISGNGKSTYYADSVKGRFTISRDNSKNTLYLQMNSLRAEDTAVYYCARYYNTGFDLWGQGTLVTVSS
VL: DIVMTQSPSSLSASVGDGVTITCQASQDIYNYLNWYQQKPGKAPKLLIYYASSIVSGVPSRFSGSGSGTDFTLTISSLQPEDFATYYCQQANSFPPTFGQGTKLEIKR
For the molecule B4, the “EC50 (nM), IL-2 production” value in experiment [1] amounted to 3.35 nM. In addition, in experiment [5], the dissociation constant (Kd) stood at 0.173 nM, the koff came out at 0.000138 s⁻¹ and the kon was found to be 797000 M⁻¹ s⁻¹.
